Biological target: the molecule itself
Assay: non-reducing PAGE of protein from CHO cells
From the text: Concentrated supernatants from one well of a 6-well plate were separated using polyaclylamide gel electrophoresis (PAGE) under […] conditions. Proteins were transferred to nitrocellulose membranes and detected with antisera specific for GDF-6 or for the FLAG tag, secondary antibodies and detection system.

B1: active domain of GDF-6 fused to a FLAG tag (SEQ ID NO: 25), expressed in CHO cells (ligand)
chain: MDYKDDDDKENLYFQGTAFASRHGKRHGKKSRLRCSKKPLHVNFKELGWDDWIIAPLEYEAYHCEGVCDFPLRSHLEPTNHAIIQTLMNSMDPGSTPPSCCVPTKLTPISILYIDAGNNVVYKQYEDMVVESCGCR
notes: Non-reducing PAGE indicates a homodimer; also called active fragment of GDF-6; active fragment
B1: binds.
